{"source": "paper PMC9282883", "about": "(Nature, 2021)", "binders": {"B1": {"name": "S2H14 IgG1 (antibody, V domains shown)", "VH": "not shown", "VL": "NFMLTQPHSVSESPGKTVTISCTRSSGSIASNYVQWYQQRPGSSPTTVIYEDNQRPSGVPDRFSGSIDSSSNSASLTISGLKTEDEADYYCQSYDSSNQVFGGGTKLTVL"}, "B2": {"name": "S2X259 Fab (Fab, V domains shown)", "VH": "QVQLVQSGAEVKKPGSSVKVSCKASGGIFNTYTISWVRQAPGQGLEWMGRIILMSGMANYAQKIQGRVTITADKSTSTAYMELTSLRSDDTAVYYCARGFNGNYYGWGDDDAFDIWGQGTLVTVYS", "VL": "QTVLTQPPSVSGAPGQRVTISCTGSNSNIGAGYDVHWYQQLPGTAPKLLICGNSNRPSGVPDRFSGSKSGTSASLAITGLQAEDEADYYCQSYDSSLSGPNWVFGGGTKLTVL"}, "B3": {"name": "S2D106 Fab (Fab, V domains shown)", "VH": "EVQLVQSGAEVKKPGSSVKVSCKASGGPFSSSAISWVRQAPGQGLEWMGGIIPMVGTANYAQKFQGRVTITADESTSTAYMELSSLRSEDTAVYYCARDSRYCSGGSCYSVWFDPWGQGTLVTVSS", "VL": "not shown"}}, "key": {"[1]": {"target": "yeast-displayed unmutated SARS-CoV-2 RBD (Wuhan-Hu-1) (SARS-CoV-2, UniProt P0DTC2)", "test": "flow cytometry on cells"}, "[2]": {"target": "SARS-CoV-2 RBD WT (for crystallization) (SARS-CoV-2, UniProt P0DTC2)", "test": "crystal structure"}, "[3]": {"target": "Prefusion-stabilized SARS-CoV-2 spike protein for SPR (residues 14–1211, D614G) (SARS-CoV-2 Wuhan-Hu-1 with D614G, D614G)", "test": "SPR"}}, "data": [{"binder": "B1", "values": [{"measurement": "binding result", "setting": "[1]", "value": "binds"}]}, {"binder": "B2", "values": [{"measurement": "binding result", "setting": "[2]", "value": "binds"}]}, {"binder": "B3", "values": [{"measurement": "Kd", "setting": "[3]", "value": 0.17, "unit": "nM"}]}]}
